{
  "source": "patent US10377818B2",
  "about": "“Method of treating glioma” (The Board of Trustees of the Leland Stanford Junior …, priority 2015, dated 2019)",
  "key": {"SU-pcGBM2 cells": {"system": "SU-pcGBM2 cells", "test": "Annexin V FACS analysis of cell death", "assay_type": "cell-based", "conditions": "50 nM NLGN3, 24 h vs PBS", "experimental": "After 24-hr exposure to PBS or NLGN3 (50 nM), SU-pcGBM2 cells were stained with DAPI (X-axis) and Annexin V-FITC (Y-axis) to detect cell death by FACS analysis, performed in biological duplicate. Live Annexin V^−/DAPI^− cells shown in lower left quadrant of contour plots; pre-apoptotic Annexin V^+/DAPI^− cells, left upper quadrant; dead Annexin V^+/DAPI^+ cells, right upper quadrant.\nSU-pcGBM2 cells were cultured in minimal growth media together with 50 nM NLGN-3 recombinant protein (dissolved in PBS) or PBS only as a vehicle control in duplicate for 24 hrs. Cells were harvested for FACS analyses of apoptosis using Annexin V-FITC Apoptosis Detection Kit II (556570, BD Biosciences) according to the manufacturer's instruction with slight modifications. DAPI was used in combination with Annexin V-FITC to stain the apoptotic cell population instead of PI. The stained cells were analyzed using a BD Fortessa FACS machine (BD Biosciences). The data were analyzed using Flowjo software (FLOWJO, LLC)."}, "[1]": {"system": "NLGN3 mRNA in SU-pcGBM2 cells", "test": "qPCR of NLGN3 gene expression in SU-pcGBM2 cells", "assay_type": "cell-based, human", "conditions": "50 nM recombinant NLGN3, 12 hour vs vehicle"}, "[2]": {"system": "NLGN3 protein in SU-pcGBM2 cells", "test": "Western blot of NLGN3 protein expression in glioma cells", "assay_type": "cell-based, human", "conditions": "50 nM NLGN3 for 12 hours, then 24 hours recovery in fresh media", "experimental": "A) Signaling through the PI3K pathway increases in response to NLGN3. Representative Western blot illustrating increased phosphorylation of AKT in response to various concentrations of NLGN3 ranging from 0-50 nM. p-AKT is shown in top panel; total AKT is shown in the bottom panel. B) Quantification of the increased fold change of pAKT/AKT ratio in response to NLGN3 at various doses (oneway ANOVA, F=17.99, P<001; data shown as mean±SEM; *P<0.05, **P<0.01, ***P<0.001 by Tukey's post-hoc tests to further examine pairwise comparisons). Fold change is normalized to blank media (aCSF). (C) Fos mRNA expression increases after 1 hour exposure to […] 50 nM NLGN3 (data shown as mean±SEM; **P<0.01 by unpaired two-tailed Student's t-test). D) NLGN3 mRNA expression increases after 12 hour exposure to 50 nM NLGN3 vs. vehicle in SU-[…] cells. Data shown as mean±SEM; *P<0.05 by unpaired two-tailed Student's t-test. […]\nEndogenous protein levels were determined using Western blot analysis. […]\nBriefly, in FIG. 5, panel A, cells were lysed after 1-hour exposure to 0 nM, 5 nM, 10 nM, or 50 nM recombinant NLGN3 (Origene Technologies, Rockville, Md.), using RIPA buffer and protease inhibitors. […] Protein concentration in the lysate was determined using a Bradford assay. […] Proteins were visualized using Clarity ECL Western Substrate (BioRad, Hercules, Calif.) and quantified using ImageJ."}},
  "data": [
    {"molecule": "NLGN3: Recombinant full-length neuroligin-3 (Origene), tested as glioma mitogen (protein, listed as Mus musculus) MWLQPSLSLSPTPTVGRSLCLTLGFLSLVLRASTQAPAPTVNTHFGKLRGARVPLPSEILGPVDQYLGVPYAAPPIGEKRFLPPEPPPSWSGIRNATHFPPVCPQNIHTAVPEVMLPVWFTANLDIVATYIQEPNEDCLYLNVYVPTEDGSGAKKQGEDLADNDGDEDEDIRDSGAKPVMVYIHGGSYMEGTGNMIDGSVLASYGNVIVITLNYRVGVLGFLSTGDQAAKGNYGLLDQIQALRWVSENIAFFGGDPRRITVFGSGIGASCVSLLTLSHHSEGLFQRAIIQSGSALSSWAVNYQPVKYTSLLADKVGCNVLDTVDMVDCLRQKSAKELVEQDIQPARYHVAFGPVIDGDVIPDDPEILMEQGEFLNYDIMLGVNQGEGLKFVEGVVDPEDGVSGTDFDYSVSNFVDNLYGYPEGKDTLRETIKFMYTDWADRDNPETRRKTLVALFTDHQWVEPSVVTADLHARYGSPTYFYAFYHHCQSLMKPAWSDAAHGDEVPYVFGVPMVGPTDLFPCNFSKNDVMLSAVVMTYWTNFAKTGDPNKPVPQDTKFIHTKANRFEEVAWSKYNPRDQLYLHIGLKPRVRDHYRATKVAFWKHLVPHLYNLHDMFHYTSTTTKVPPPDTTHSSHITRRPNGKTWSTKRPAISPAYSNENAPGSWNGDQDAGPLLVENPRDYSTELSVTIAVGASLLFLNVLAFAALYYRKDKRRQEPLRQPSPQRGTGAPELGTAPEEELAALQLGPTHHECEAGPPHDTLRLTALPDYTLTLRRSPDDIPLMTPNTITMIPNSLVGLQTLHPYNTFAAGFNSTGLPHSHSTTRV", "values": [
      {"measurement": "cell death by Annexin V FACS analysis", "setting": "SU-pcGBM2 cells", "result": "no change in cell death"},
      {"measurement": "NLGN3 gene expression", "setting": "[1]", "result": "increase in glioma cell NLGN3 gene expression"},
      {"measurement": "NLGN3 protein expression", "setting": "[2]", "result": "Protein expression of NLGN3 following glioma cell NLGN3 exposure was confirmed"}
    ]}
  ]
}
